# Measurements reported in article PMC6895700, “SIX3 and SIX6 interact with GEMININ via C-terminal regions” (Biochemistry and Biophysics Reports, 2019).
# Where “and” joins values, the source holds several entries; their conditions need not be identical. Equal values may be shown once.
# T1: MBP-fused full-length SIX3 (SIX3 without aa 1-78) (human, UniProt O95343 79-332)
# T1 construct: SIX3, human, without the N-terminal homopolymeric region (aa 1-78, GenBank AF049339); A TEV site lies between the tags and SIX3; also called MBPSIX3; source: E. coli BL21Star (DE3), purified (Ni-NTA HisTrap HP, size exclusion); not shown: MBP, N-terminal, kept
# T1 sequence (looked up): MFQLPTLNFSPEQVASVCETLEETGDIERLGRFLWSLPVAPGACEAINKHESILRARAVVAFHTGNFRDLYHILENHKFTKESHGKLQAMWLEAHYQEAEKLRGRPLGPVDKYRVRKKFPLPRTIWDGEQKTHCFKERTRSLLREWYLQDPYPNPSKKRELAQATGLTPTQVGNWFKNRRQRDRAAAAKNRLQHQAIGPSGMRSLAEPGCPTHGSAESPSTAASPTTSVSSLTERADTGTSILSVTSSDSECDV
# B1: GEMININ (human, full-length, MBP tag removed) (natural protein, UniProt O75496 1-209, looked up)
# chain: MNPSMKQKQEEIKENIKNSSVPRRTLKMIQPSASGSLVGRENELSAGLSKRKHRNDHLTSTTSSPGVIVPESSENKNLGGVTQESFDLMIKENPSSQYWKEVAEKRRKALYEALKENEKLHKEIEQKDNEIARLKKENKELAEVAEHVQYMAELIERLNGEPLDNFESLDNQEFDSEEETVEDSLVEDSEIGTCAEGTVSSSTDAKPCI
# notes: The His6 tag lies with MBP at the N-terminus, before the TEV site of pETMBP_1, so it was probably removed with MBP; also called GMNN; source: E. coli BL21Star (DE3), purified (Ni-NTA HisTrap HP, TEV digestion, size exclusion); not shown: MBP, N-terminal, cleaved
# Tests used:
# Conditions in all cases: both partners purified
# [1] = biological target: T1, MBP-fused full-length SIX3 (SIX3 …); test: SPR; Biacore T200, GEMININ (1370 RU) immobilised by amine coupling on a CM5 chip; MBP fusions or MBP alone as analyte; 25 °C; PBS-TCEP (3.5 mM TCEP) with 350 mM NaCl (results: 437 mM NaCl); 30 μl/min; apparent KD from a steady-state fit
# [2] = biological target: T1, MBP-fused full-length SIX3 (SIX3 …); test: ITC; Nano ITC LV, 25 °C, PBS-TCEP with 300 mM NaCl (results: 437 mM NaCl); 200 μM GEMININ (or its coiled-coil region) in the syringe, 10 μM MBPSIX3 (or MBP alone) in the cell; independent binding sites model; GEMININ-to-MBP control subtracted
# [3] = biological target: B1; test: SPR; Biacore T200, GEMININ (1370 RU) immobilised by amine coupling on a CM5 chip; MBP fusions or MBP alone as analyte; 25 °C; PBS-TCEP (3.5 mM TCEP) with 350 mM NaCl (results: 437 mM NaCl); 30 μl/min; apparent KD from a steady-state fit
Kd [1],Kd [2],dH [2],stoichiometry N [2],Kd [3],Binder
3.19 µM,3.4 µM and 3.41 µM,-75.8 kcal/mol,0.55,,B1
,,,,19.5 µM and 19.6 µM,"MBP-fused SIX domain of SIX3 (domain or fragment, Assayed as an N-terminal His6-MBP fusion (left out). Start follows the printed deletion of aa 1-78; end is derived from the stop-codon primer (T-I-W-D-stop), just before the homeobox at 206.) MFQLPTLNFSPEQVASVCETLEETGDIERLGRFLWSLPVAPGACEAINKHESILRARAVVAFHTGNFRDLYHILENHKFTKESHGKLQAMWLEAHYQEAEKLRGRPLGPVDKYRVRKKFPLPRTIWD"
